Source: US20220298260A1 (MYTHIC THERAPEUTICS, published 2022)
Positions count from the first letter of the chain named.

B1: MYT0621 (antibody, V domains shown)
VH: QVQLVQSGAEVVKPGASVKISCKASGYTFTGYFMNWVKQSPGQSLEWIGRIHPYDGDTFYHQKFQGKATLTVDKSSNTAHMELLSLTSEDFAVYYCTRYDGSRAMDYWGQGTTVTVSS
VL: DIVLTQSPLSLAVSLGQPAIISCKASQSVSFAGTSLMHWYHQKPGQQPRLLIYRASNLEAGVPDRFSGSGSKTDFTLTISPVEAEDAATYYCQQSREYPYTFGGGTKLEIK
notes: IgG
B2: MYT1583 (antibody, V domains shown)
VH: B1 VH with H61N
VL: B1 VL with S95H
notes: IgG
B3: MYT1580 (antibody, V domains shown)
VH: B1 VH with H61N
VL: B1 VL with A60H
notes: IgG
B4: MYT1581 (antibody, V domains shown)
VH: B1 VH with H61N
VL: B1 VL with Q93H
notes: IgG
B5: MYT1565 (antibody, V domains shown)
VH: B1 VH with H61N
VL: B1 VL with S30H
notes: IgG
B6: MYT0630 (antibody, V domains shown)
VH: B1 VH with H61N, D100H
VL: B1 VL
notes: IgG
B7: MYT1575 (antibody, V domains shown)
VH: B1 VH with H61N
VL: B1 VL with A55H
notes: IgG
B8: MYT1157 (antibody, V domains shown)
VH: B1 VH with A24H, T58H, F59H, H61N
VL: B1 VL
notes: IgG
B9: MYT1562 (antibody, V domains shown)
VH: B1 VH with H61N
VL: B1 VL with Q27H
notes: IgG
B10: MYT1579 (antibody, V domains shown)
VH: B1 VH with H61N
VL: B1 VL with E59H
notes: IgG
B11: MYT1574 (antibody, V domains shown)
VH: B1 VH with H61N
VL: B1 VL with R54H
notes: IgG
B12: MYT0637 (antibody, V domains shown)
VH: B1 VH with H61N, Y107H
VL: B1 VL
notes: IgG
B13: MYT1584 (antibody, V domains shown)
VH: B1 VH with H61N
VL: B1 VL with R96H
notes: IgG
B14: MYT0628 (antibody, V domains shown)
VH: B1 VH with H61N, R98H
VL: B1 VL
notes: IgG
B15: MYT1160 (antibody, V domains shown)
VH: B1 VH with Y27H, T58H, F59H, H61N
VL: B1 VL
notes: IgG
B16: MYT1566 (antibody, V domains shown)
VH: B1 VH with H61N
VL: B1 VL with F31H
notes: IgG
B17: MYT1563 (antibody, V domains shown)
VH: B1 VH with H61N
VL: B1 VL with S28H
notes: IgG
B18: MYT1578 (antibody, V domains shown)
VH: B1 VH with H61N
VL: B1 VL with L58H
notes: IgG
B19: MYT0625 (antibody, V domains shown)
VH: B1 VH with H61N, Q65H
VL: B1 VL
notes: IgG
B20: MYT1567 (antibody, V domains shown)
VH: B1 VH with H61N
VL: B1 VL with A32H
notes: IgG
B21: MYT1571 (antibody, V domains shown)
VH: B1 VH with H61N
VL: B1 VL with L36H
notes: IgG
B22: MYT1568 (antibody, V domains shown)
VH: B1 VH with H61N
VL: B1 VL with G33H
notes: IgG
B23: MYT1155 (antibody, V domains shown)
VH: B1 VH with A24H, Y54H, T58H, H61N
VL: B1 VL
notes: IgG
B24: MYT0624 (antibody, V domains shown)
VH: B1 VH with H61N, F64H
VL: B1 VL
notes: IgG
B25: MYT0632 (antibody, V domains shown)
VH: B1 VH with H61N, S102H
VL: B1 VL
notes: IgG
B26: MYT1586 (antibody, V domains shown)
VH: B1 VH with H61N
VL: B1 VL with Y98H
notes: IgG
B27: MYT1570 (antibody, V domains shown)
VH: B1 VH with H61N
VL: B1 VL with S35H
notes: IgG
B28: MYT1569 (antibody, V domains shown)
VH: B1 VH with H61N
VL: B1 VL with T34H
notes: IgG
B29: MYT0623 (antibody, V domains shown)
VH: B1 VH with H61N, K63H
VL: B1 VL
notes: IgG
B30: MYT0633 (antibody, V domains shown)
VH: B1 VH with H61N, R103H
VL: B1 VL
notes: IgG
B31: MYT1573 (antibody, V domains shown)
VH: B1 VH with H61N
VL: B1 VL with H38A
notes: IgG
B32: MYT1159 (antibody, V domains shown)
VH: B1 VH with Y27H, Y54H, F59H, H61N
VL: B1 VL
notes: IgG
B33: MYT0629 (antibody, V domains shown)
VH: B1 VH with H61N, Y99H
VL: B1 VL
notes: IgG
B34: MYT0622 (antibody, V domains shown)
VH: B1 VH with H61N, Q62H
VL: B1 VL
notes: IgG
B35: MYT1576 (antibody, V domains shown)
VH: B1 VH with H61N
VL: B1 VL with S56H
notes: IgG
B36: MYT1577 (antibody, V domains shown)
VH: B1 VH with H61N
VL: B1 VL with N57H
notes: IgG
B37: MYT1156 (antibody, V domains shown)
VH: B1 VH with A24H, Y54H, F59H, H61N
VL: B1 VL
notes: IgG
B38: MYT1559 (antibody, V domains shown)
VH: B1 VH with H61N
VL: B1 VL with K24H
notes: IgG
B39: MYT1561 (antibody, V domains shown)
VH: B1 VH with H61N
VL: B1 VL with S26H
notes: IgG
B40: MYT1585 (antibody, V domains shown)
VH: B1 VH with H61N
VL: B1 VL with E97H
notes: IgG
B41: MYT1158 (antibody, V domains shown)
VH: B1 VH with Y27H, Y54H, T58H, H61N
VL: B1 VL
notes: IgG
B42: MYT0626 (antibody, V domains shown)
VH: B1 VH with H61N, G66H
VL: B1 VL
notes: IgG
B43: MYT0627 (antibody, V domains shown)
VH: B1 VH with H61N, T97H
VL: B1 VL
notes: IgG
B44: MYT1582 (antibody, V domains shown)
VH: B1 VH with H61N
VL: B1 VL with Q94H
notes: IgG
B45: MYT0635 (antibody, V domains shown)
VH: B1 VH with H61N, M105H
VL: B1 VL
notes: IgG
B46: MYT0636 (antibody, V domains shown)
VH: B1 VH with H61N, D106H
VL: B1 VL
notes: IgG

Biological target: T1, FOLR1 (R&D Systems, Cat #5646-FR) (human, UniProt P15328 25-233)
T1 construct: Bought soluble protein; also called Folate Receptor 1
T1 sequence (P15328 25-233 limits assumed): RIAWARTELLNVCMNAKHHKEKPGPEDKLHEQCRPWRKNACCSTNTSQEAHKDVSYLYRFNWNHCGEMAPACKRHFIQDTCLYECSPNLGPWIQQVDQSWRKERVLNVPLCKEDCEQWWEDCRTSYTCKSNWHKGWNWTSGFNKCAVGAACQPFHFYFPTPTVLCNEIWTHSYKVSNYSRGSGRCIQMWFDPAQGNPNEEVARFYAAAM
Assay: BLI, IgG on anti-human Fc sensor, 50 nM FOLR1

| Binder | binding result |
| --- | --- |
| B1 | binds |
| B2 | binds |
| B3 | binds |
| B4 | binds |
| B5 | binds |
| B6 | binds |
| B7 | binds |
| B8 | binds |
| B9 | binds |
| B10 | binds |
| B11 | binds |
| B12 | binds |
| B13 | binds |
| B14 | binds |
| B15 | binds |
| B16 | binds |
| B17 | binds |
| B18 | binds |
| B19 | binds |
| B20 | binds |
| B21 | binds |
| B22 | binds |
| B23 | binds |

| Binder | binding result |
| --- | --- |
| B24 | binds |
| B25 | binds |
| B26 | binds |
| B27 | binds |
| B28 | binds |
| B29 | binds |
| B30 | binds |
| B31 | binds |
| B32 | binds |
| B33 | binds |
| B34 | binds |
| B35 | binds |
| B36 | binds |
| B37 | binds |
| B38 | binds |
| B39 | binds |
| B40 | binds |
| B41 | binds |
| B42 | binds |
| B43 | binds |
| B44 | binds |
| B45 | binds |
| B46 | binds |
